From paper PMC11081511

Test system: Phloem protein 2 (PP2), 26 kDa major variant (cucumber)
Experiment: northwestern
Details: Northwestern: 10 mM Tris-HCl pH 7.5, 1 mM EDTA, 100 mM NaCl, 0.02% Ficoll 400, 0.02% PVP-40, 1% BSA, 5 pmol probe, 50 ug/ml yeast tRNA, renaturation 25 C. …

| Substance | binding signal (reference for fold values) | binding signal (fold vs PEMV2) |
| --- | --- | --- |
| PEMV2 RNA | 1 |  |
| CY1 D-RNA |  | 10 |
| CY1 full-length RNA |  | 7.5 |
